What all share (assay): GST pulldown, Western blot densitometry
Common to all, as to conditions: incubated overnight with lysates; GST-only control 10 (PA2 lysate), 8 (WT lysate)

Test [1] addresses GST-tagged CMS SH3 domain I.
Test [2] concerns the target GST-tagged CMS SH3 domain II.
Test [3] addresses GST-tagged CMS SH3 domain III.

For the substance “HCV NS5A protein (WT) expressed from SGR-neo-JFH-1 (from UniProt Q99IB8) PA2: P2 motif PTPPPR -> ATPAAA (P->A; P->A; P->A; R->A; residue numbers not printed)”, the response (NS5A:GST-SH3 ratio (%)) worked out at 16 in test [1], 9 in test [2] and 10 in test [3].

Source of the values: publication PMC4681064.
